Results reported in US20140086913A1 (Gilead, published 2014).
Where two headings read alike, the source gives them in different places.

T1: mouse DDR1 stably expressed on HEK293 cells (mouse, UniProt Q03146 20-911)
T1 construct: whole, on cells; also called murine DDR1
T1 sequence (looked up): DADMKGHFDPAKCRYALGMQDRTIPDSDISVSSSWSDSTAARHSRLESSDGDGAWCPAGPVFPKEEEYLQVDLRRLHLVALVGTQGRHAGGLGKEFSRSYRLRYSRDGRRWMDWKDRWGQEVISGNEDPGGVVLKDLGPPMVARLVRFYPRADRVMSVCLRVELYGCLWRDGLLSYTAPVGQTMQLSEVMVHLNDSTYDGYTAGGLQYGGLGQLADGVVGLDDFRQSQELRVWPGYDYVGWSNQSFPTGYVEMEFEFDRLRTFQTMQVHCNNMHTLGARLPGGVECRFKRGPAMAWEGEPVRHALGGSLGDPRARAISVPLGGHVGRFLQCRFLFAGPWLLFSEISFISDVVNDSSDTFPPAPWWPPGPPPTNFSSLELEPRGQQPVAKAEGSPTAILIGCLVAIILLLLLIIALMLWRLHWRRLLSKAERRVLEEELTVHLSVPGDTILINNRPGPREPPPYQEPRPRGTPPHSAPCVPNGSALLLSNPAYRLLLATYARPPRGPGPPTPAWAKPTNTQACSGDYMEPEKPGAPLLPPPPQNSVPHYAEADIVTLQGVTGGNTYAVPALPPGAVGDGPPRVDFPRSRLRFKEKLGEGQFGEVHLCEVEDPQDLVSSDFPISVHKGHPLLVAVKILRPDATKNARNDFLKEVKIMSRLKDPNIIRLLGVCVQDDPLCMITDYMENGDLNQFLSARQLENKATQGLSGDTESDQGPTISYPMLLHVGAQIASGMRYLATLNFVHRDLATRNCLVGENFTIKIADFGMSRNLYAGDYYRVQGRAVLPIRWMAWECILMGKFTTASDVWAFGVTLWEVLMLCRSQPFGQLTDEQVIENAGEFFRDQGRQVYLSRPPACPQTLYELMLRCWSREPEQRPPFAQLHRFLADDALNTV


What was measured:
[1] = target: DDR1 stably over-expressed in HCT-116 tumor cells, Q08345; assay: cell-based or functional assay
[2] = target: DDR1 with a ProLink Tag (PK) in engineered U20S cells (DiscoveRx), Q08345; assay: cell-based or functional assay
[3] = target: T1, mouse DDR1 stably expressed on HEK293 …; assay: flow cytometry on transfected HEK293 cells
[4] = target: T2, DDR1ECD-Fc (R&D Systems, Catalog #2396-DR) (human, UniProt Q08345 21-416); assay: ELISA
T2 construct: range 21-416; construct as described for the bought immunogen; also called human ECD-DDR1-Fc; Fc-ECD-DR1; not shown: human IgG1, Pro100-Lys330
T2 sequence (Q08345 other isoform, or with tags, fused parts or gaps limits assumed): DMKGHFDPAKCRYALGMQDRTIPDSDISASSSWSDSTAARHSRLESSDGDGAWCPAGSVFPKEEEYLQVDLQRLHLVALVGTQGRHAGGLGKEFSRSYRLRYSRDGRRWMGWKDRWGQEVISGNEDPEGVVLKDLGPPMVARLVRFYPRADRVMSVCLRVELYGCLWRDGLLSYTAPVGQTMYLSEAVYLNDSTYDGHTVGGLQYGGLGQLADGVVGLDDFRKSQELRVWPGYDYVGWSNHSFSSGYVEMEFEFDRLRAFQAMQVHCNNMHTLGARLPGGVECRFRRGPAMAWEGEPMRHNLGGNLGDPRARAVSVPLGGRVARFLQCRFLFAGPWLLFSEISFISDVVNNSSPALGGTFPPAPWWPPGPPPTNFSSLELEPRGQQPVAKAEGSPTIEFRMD

[5] = target: DDR1 endogenously expressed on human cancer cell lines (T47D, HCT-116, A431) (human) (UniProt Q08345); assay: cell-based or functional assay
[6] = target: T1, mouse DDR1 stably expressed on HEK293 …; assay: flow cytometry, column without head (taken as HEK293/mouse DDR1)
Procedure: Additional monoclonal antibodies were obtained from individual hybridomas in Example 1 and were characterized for their properties.
Cells were cultured in DMEM with 10% FBS and 0.8 mg/mL hygromycin. When cells reached 60-80% confluence, they were centrifuged at 1,200 rpm for 5 minutes, suspended in FACS buffer (1×PBS, 1% BSA), and aliquoted into a 96-well plate at 1×10⁶ cells per well. The anti-DDR1 monoclonal antibodies or appropriate isotype controls at 2 μg per 1×10⁶ cells were added and incubated at 4° C. for 1 hr. The cells were washed twice with FACS buffer then stained with the anti-IgG-PE secondary antibody at 10 μL per well at 4° C. for 1 hr. The cells were washed again and measured for the MFI values or signals using flow cytometry (LSR Fortessa instrument, BD Biosciences). Background MFI signals from vector-only cells (i.e. no DDR1 or DDR2 expression) was subtracted from those of the cells treated with antibodies. Higher MFI values or signals indicated increased binding or specificity of the anti-DDR1 antibodies to the DDR1 on the cell surface.

[7] = target: DDR1 endogenously expressed on human cancer cell lines (T47D, HCT-116, A431) (human) (UniProt Q08345); assay: cell-based or functional assay; remark: listed apart in the source
[8] = target: DDR1 with a ProLink Tag (PK) in engineered U20S cells (DiscoveRx) (UniProt Q08345); assay: cell-based or functional assay
[9] = target: DDR1 stably over-expressed in HCT-116 tumor cells (UniProt Q08345); assay: cell-based or functional assay
DDR1 stably over-expressed in HCT-116 tumor cells, sequence (Q08345 19-913): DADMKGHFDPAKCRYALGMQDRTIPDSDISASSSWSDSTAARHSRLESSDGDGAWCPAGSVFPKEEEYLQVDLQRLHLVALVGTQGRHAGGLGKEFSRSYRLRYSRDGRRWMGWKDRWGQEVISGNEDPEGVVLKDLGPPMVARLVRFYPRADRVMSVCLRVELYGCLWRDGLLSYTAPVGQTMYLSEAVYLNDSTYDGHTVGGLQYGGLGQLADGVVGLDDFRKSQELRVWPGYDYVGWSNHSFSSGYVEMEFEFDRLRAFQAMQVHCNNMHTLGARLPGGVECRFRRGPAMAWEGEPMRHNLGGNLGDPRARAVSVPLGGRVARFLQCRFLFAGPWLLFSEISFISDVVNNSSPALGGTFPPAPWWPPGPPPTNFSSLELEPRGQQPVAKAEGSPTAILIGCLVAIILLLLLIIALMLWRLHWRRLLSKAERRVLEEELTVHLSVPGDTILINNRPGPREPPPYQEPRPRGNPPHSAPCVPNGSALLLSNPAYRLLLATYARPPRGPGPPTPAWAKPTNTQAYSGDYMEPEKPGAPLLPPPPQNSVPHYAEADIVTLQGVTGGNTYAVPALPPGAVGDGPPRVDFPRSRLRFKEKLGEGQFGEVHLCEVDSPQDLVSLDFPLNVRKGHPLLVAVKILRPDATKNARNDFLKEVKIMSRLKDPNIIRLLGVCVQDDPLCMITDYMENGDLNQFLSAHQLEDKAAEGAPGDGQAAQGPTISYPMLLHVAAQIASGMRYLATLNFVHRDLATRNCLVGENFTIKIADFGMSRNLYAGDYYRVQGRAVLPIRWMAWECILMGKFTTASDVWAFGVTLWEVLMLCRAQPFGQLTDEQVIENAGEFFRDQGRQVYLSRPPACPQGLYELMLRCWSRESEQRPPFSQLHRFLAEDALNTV

Binder	EC50, NFkB luciferase reporter (HCT-116, collagen II) [1]	EC50, collagen-mediated relocalization of DDR1 (HCT-116) [1]	EC90, NFkB luciferase reporter (HCT-116, collagen II) [1]	Mean EC50, DDR1 Tyr513 phosphorylation assay (U20S) [2]	binding result [3]	Kd [4]	EC50, DDR1 phospho-specific ELISA (T47D) [5]	EC50, cluster formation assay (A431 cells) [5]	Maximal inhibition, DDR1 phospho-specific ELISA (T47D) [5]	MFI [6]	EC50, DDR1 phospho-specific ELISA (T47D) [7]	EC50, cluster formation assay (A431 cells) [7]	Maximal inhibition, DDR1 phospho-specific ELISA (T47D) [7]	NPI of cluster formation at 66 nM (A431 cells) [7]	Mean EC50, DDR1 Tyr513 phosphorylation assay (U20S) [8]	EC50, NFkB luciferase reporter (HCT-116, collagen II) [9]	EC90, NFkB luciferase reporter (HCT-116, collagen II) [9]
AB2004 (antibody, V domains shown, mouse hybridoma mAb) VH: DVHLQESGPDLVKPSQSLSLTCTVTDYSITSGYGWHWIRQFPGNKLEWMGYIHYGGSTKYNSSLKSRISITRDTSKNQFFLQLKSVTTDDTGTYYCATSGNYGFAYWGQGTLVTVSA VL: DIVLTQSPTSLAVSLGQRATMSCRASESVDDYGTSFMHWYQQKPGQPPKLLIYRASNLESGIPARFSGSGSRADFTLSINPVEPDDVATYYCQQSNEDPFTFGSGTKLEIKR	3.7 nM	1.4 nM	6.95 nM	1.85 nM	–	0.154 nM	–	–	–	9500 MFI	0.43 nM	2.28 nM	100%	110%	–	–	–
AB2039 (antibody, V domains shown, mouse hybridoma mAb; also called AB0039) VH: EVQLVESGGGLVQPGGSLKFSCAASGFTFSSYGMSWVRQTPDKRLELVAIINSHGFSTYYPDSVKGRFTISRDNAKNTLYLQMSSLKSEDTAIYYCARGGYGNYGMDYWGQGTSVTVSS VL: DIVLTQSPASLAVSLGQRATISCRASESVDSYGNSFMHWYQQKVGQPPKLLIFRASNIESGIPARFSGSGSRTDFTLTINSVEADDVATYYCQQSNEAPYTFGGGTKLEIKR	1.63 nM	0.45 nM	4.61 nM	1.1 nM	–	0.346 nM	–	–	–	10500 MFI	0.43 nM	0.93 nM	100%	103%	–	–	–
AB2078 (antibody, V domains shown, mouse hybridoma mAb) VH: EIQLQQSGPELVNPGASVKVSCKASGYSFTDYNMYWVKQSHGKSLEWIGYIDPYNGGTSYNQKFKGKATLTVDKSSSTAFMHLNSLTSEDSAVYYCAREYYGSRLWYFDVWGAGTAVTVSS VL: DIVMTQSPSSLAMSVGQKVTMSCKSSQSLLNRNNQKNYLAWYQQKPGQSPKLLVYFASTRESGVPDRFIGSGSGTDFTLTLSSVRAEDLAENFCQQHYSTPFTFGSGTRLEIKR	–	–	–	–	–	0.374 nM	–	–	–	24200 MFI	0.39 nM	1.82 nM	100%	123%	1.33 nM	3.01 nM	6.66 nM
AB2010 (antibody, V domains shown, mouse hybridoma mAb) VH: QVQLKQSGPGLVQPSQSLSITCTVSGFSFTGYGIHWVRQSPGKGLEWLGVIWSGGITDYNAAFISRLSISMDSSKGQVFFKMNSLQANDTAIYYCARRSTTVVADYAMDYWGQGTSVTVSS VL: SIVMTQTPKFLLVSAGDRVTITCKASQSVSNDVAWYQQKPGQSPKLLIYYASNRYTGVPDRFTGSGYGTDFTFTINTVQAEDLAVYFCQQDYTSPLTFGAGTKLELKR	–	–	–	7.6 nM	–	–	–	–	–	7140 MFI	0.63 nM	4.84 nM	100%	108%	–	–	–

Continued, values first:

EC50, NFkB luciferase reporter (HCT-116, collagen II) [1]	EC50, collagen-mediated relocalization of DDR1 (HCT-116) [1]	EC90, NFkB luciferase reporter (HCT-116, collagen II) [1]	Mean EC50, DDR1 Tyr513 phosphorylation assay (U20S) [2]	binding result [3]	Kd [4]	EC50, DDR1 phospho-specific ELISA (T47D) [5]	EC50, cluster formation assay (A431 cells) [5]	Maximal inhibition, DDR1 phospho-specific ELISA (T47D) [5]	MFI [6]	EC50, DDR1 phospho-specific ELISA (T47D) [7]	EC50, cluster formation assay (A431 cells) [7]	Maximal inhibition, DDR1 phospho-specific ELISA (T47D) [7]	NPI of cluster formation at 66 nM (A431 cells) [7]	Mean EC50, DDR1 Tyr513 phosphorylation assay (U20S) [8]	EC50, NFkB luciferase reporter (HCT-116, collagen II) [9]	EC90, NFkB luciferase reporter (HCT-116, collagen II) [9]	Binder
1.12 nM	2.2 nM	4.17 nM	2.65 nM	binds	0.561 nM	0.72 nM	2.03 nM	100%	–	–	–	–	–	–	–	–	AB2041 (antibody, V domains shown, mouse hybridoma mAb) VH: QVQLHQSGSELAKPGASVKMSCKASGYIFTTYWIHWLKQRPGQGLEWIGFINPDTDYTEYNQKFKDKATLTADKSSNTAYVQLSSLTSEDSAVYYCARGNYGYDGLVYWGLGTLVTVSA VL: SIVMTQTPKFLLVSAGDRVTITCKASQSVSTDVAWYQQKPGQSPKLLIYYASNRYTGVPDRFTGSGYGTDFTFTISTVQAEDLAVYFCQQDYNSYTFGGGTKLEIKR
1.13 nM	–	4.73 nM	2.45 nM	–	0.287 nM	0.52 nM	4.18 nM	100%	22800 MFI	–	–	–	–	–	–	–	AB2092 (antibody, V domains shown, mouse hybridoma mAb) VH: QIQLVQSGPELKKSGETVKISCKASGYTFTDYGMNWVKQAPGKGLKWMGWINTYTGKSTYADDFKGRFAFSLETSASTTYLQITNLKNEDMATYFCARWADYFGSSYLFASWGQGTLVTVSA VL: DVLMTQTPLSLPVSLGDQASISCRSSQSIVHSDGNTYLEWYLQKPGQSPKLLIYKVSNRFSGVPDRFSGSGSGTDFTLKISRVEAEDLGIYYCFQGSHVPWTFGGGTKLEIKR
